This note sets out measurements from US10450368.

For assay [1], the target named is HIV-1 CH505 transmitted/founder gp120 Env (HIV-1). Kind of assay: direct-binding ELISA (OD450), panel 'CH505.TF gp120'.
A further assay deals with Con S gp120. The assay can be described thus: direct-binding ELISA (OD450), panel 'Con S gp120'.
The target of assay [2] is CH505.TF mutant gp120 M6 (HIV-1). The assay can be described thus: direct-binding ELISA (OD450), panel 'CH505.TF gp120 M6'.
Assay [3] addresses CH505.TF mutant gp120 M8 (HIV-1). Kind of assay: direct-binding ELISA (OD450), panel 'CH505.TF gp120 M8'.
Assay [4] has as its target Centromere B (UniProt P07199). Kind of assay: AtheNA, Ab 25 ug/ml.
For assay [5], the target named is Centromere B (UniProt P07199). The assay can be described thus: AtheNA, Ab 12.5 ug/ml.
The target of assay [6] is Centromere B (UniProt P07199). The assay can be described thus: AtheNA, Ab 6.25 ug/ml.
In assay [7] the target is Jo-1 (UniProt P12081). The assay can be described thus: AtheNA, Ab 25 ug/ml.
For assay [8], the target named is Centromere B (UniProt P07199). The assay can be described thus: AtheNA, Ab 50 ug/ml.
Assay [9] has as its target Jo-1 (UniProt P12081). The assay can be described thus: AtheNA, Ab 50 ug/ml.
Assay [10] deals with Jo-1 (UniProt P12081). Kind of assay: AtheNA, Ab 12.5 ug/ml.
Assay [11] has as its target Jo-1 (UniProt P12081). Kind of assay: AtheNA, Ab 6.25 ug/ml.
Substrate in the assay “AtheNA, Ab 25 ug/ml”: SSB (UniProt P05455)
The assay can be described thus: AtheNA, Ab 25 ug/ml.

Substrate in the assay “AtheNA, Ab 50 ug/ml”: SSB (UniProt P05455)
Kind of assay: AtheNA, Ab 50 ug/ml.

Substrate in the assay “AtheNA, Ab 12.5 ug/ml”: SSB (UniProt P05455)
The assay can be described thus: AtheNA, Ab 12.5 ug/ml.

Substrate in the assay “AtheNA, Ab 6.25 ug/ml”: SSB (UniProt P05455)
Kind of assay: AtheNA, Ab 6.25 ug/ml.

The target in assay [12] is B41 SOSIP.664 gp140 trimer (HIV-1). Kind of assay: negative stain EM, 10 molar excess of Fab.
The target in assay [13] is BG505 SOSIP.664 gp140 trimer (HIV-1). Kind of assay: negative stain EM, 10 molar excess of Fab.

Sequence of Jo-1 (P12081 whole entry): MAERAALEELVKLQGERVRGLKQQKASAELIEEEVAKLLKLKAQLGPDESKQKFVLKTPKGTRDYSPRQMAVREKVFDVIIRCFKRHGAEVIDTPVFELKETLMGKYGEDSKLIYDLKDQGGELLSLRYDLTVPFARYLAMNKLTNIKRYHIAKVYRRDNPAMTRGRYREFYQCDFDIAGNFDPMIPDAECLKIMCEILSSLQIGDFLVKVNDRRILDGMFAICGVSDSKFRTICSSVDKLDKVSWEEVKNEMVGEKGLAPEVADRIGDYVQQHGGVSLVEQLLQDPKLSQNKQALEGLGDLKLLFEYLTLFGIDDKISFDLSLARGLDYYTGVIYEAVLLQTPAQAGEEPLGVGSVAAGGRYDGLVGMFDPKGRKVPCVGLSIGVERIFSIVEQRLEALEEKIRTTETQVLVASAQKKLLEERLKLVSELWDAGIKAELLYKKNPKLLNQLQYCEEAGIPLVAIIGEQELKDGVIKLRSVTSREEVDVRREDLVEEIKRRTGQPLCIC
Sequence of SSB (P05455 whole entry): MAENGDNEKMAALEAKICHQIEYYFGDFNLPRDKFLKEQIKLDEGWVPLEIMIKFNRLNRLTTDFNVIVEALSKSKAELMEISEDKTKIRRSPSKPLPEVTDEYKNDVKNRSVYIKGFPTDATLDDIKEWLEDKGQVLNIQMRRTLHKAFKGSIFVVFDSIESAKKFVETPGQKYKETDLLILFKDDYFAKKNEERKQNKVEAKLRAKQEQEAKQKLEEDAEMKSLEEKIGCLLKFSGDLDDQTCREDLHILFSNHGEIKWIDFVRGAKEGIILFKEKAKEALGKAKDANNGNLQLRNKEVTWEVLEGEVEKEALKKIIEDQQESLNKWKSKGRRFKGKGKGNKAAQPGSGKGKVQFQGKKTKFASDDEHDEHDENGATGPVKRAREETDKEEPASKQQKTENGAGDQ
Sequence of Centromere B (P07199 whole entry): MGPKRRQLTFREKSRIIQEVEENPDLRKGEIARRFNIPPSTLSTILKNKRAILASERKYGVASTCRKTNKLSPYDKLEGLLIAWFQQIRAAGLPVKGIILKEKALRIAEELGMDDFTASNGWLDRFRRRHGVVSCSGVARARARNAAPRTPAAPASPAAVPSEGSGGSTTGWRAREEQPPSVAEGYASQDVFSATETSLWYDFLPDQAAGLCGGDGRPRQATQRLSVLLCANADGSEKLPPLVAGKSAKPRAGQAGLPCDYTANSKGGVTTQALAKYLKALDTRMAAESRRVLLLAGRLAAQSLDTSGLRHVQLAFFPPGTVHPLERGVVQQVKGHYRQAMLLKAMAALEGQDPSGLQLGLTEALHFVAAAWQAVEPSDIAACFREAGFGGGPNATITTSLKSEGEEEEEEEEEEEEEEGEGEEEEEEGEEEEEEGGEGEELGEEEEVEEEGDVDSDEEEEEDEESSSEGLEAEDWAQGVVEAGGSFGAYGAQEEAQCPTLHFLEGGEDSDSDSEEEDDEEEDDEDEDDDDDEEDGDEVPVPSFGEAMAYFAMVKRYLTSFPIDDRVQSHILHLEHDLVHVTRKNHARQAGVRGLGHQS

B1: CH492 (antibody, V domains shown)
VH: QVQLVQSGAAVKKPGASVRVSCKASGYTFTSSHIHWVRQAPGQGPEWMGMVDPRFGRPTYAQKFQGRVAMTRDIYTSTVYMDLRSLKSEDTAIYFCVRNAETEGSLLHIEYWGQGTRVTVSS
VL: EIVLTQSPATLSVSPGERATLSCRASQSVRSNIAWYQQKPGQAPRLLIHGASTRATGIPGRFSGSGSGPEFTLAISSVQSEDFAVYYCQQYNDWWTFGQGTKVEIK
In the case of B1, the EC50 (read off the curve) in [1] turned out to be 0.5 µg/mL; in the assay with Con S gp120, 5 µg/mL; in assay [2], 0.5 µg/mL; in [3], 6 µg/mL.

B2: CH241 (antibody, V domains shown)
VH: QVQLVQSGAAVKKPGASVRVSCKASGYTFTSSHIHWVRQAPGQGPEWMGMIDPSVGRPTTAGKFQGRVTMTRDRYTSTAYMDLSSLRSEDTAVYYCARSVETTGSLLYFDYWGQGTLITVSS
VL: B1 VL
As for B2, the results for the AtheNA signal (relative luminescence units) with Centromere B [4], with Centromere B [5] and in the assay with Centromere B [6] were 14, 8 and 6, respectively.

B3: CH236 (antibody, V domains shown)
VH: QVQLVQSGAAVKRPGASVTISCRASGYTFTTYYIHWVRQAPGQRLELMGMIDPSRGRTDYAQKFQGRVTMSRDTSTSTLYMELRSLRPDDTALYYCVRNVGTEGSLLHYDYWGQGTLVTVSS
VL: EIVLTQSPATLSVSPGERVTLSCRASQSVRNNLAWYRQKRGQAPRLLIYGASTRATGIPARFSGSGSGTEFTLTISSMQSEDFAVYYCQQYNNWWTFGQGTKVEIK
Turning to B3, the AtheNA signal (relative luminescence units) in the assay with Centromere B [4] was 129; with Jo-1 [7] it was 72; with Centromere B [8], 84; in the assay with Jo-1 [9] it was 145; with Centromere B [5] it was 233; in the assay with Jo-1 [10], 19. For the same molecule, the AtheNA signal (relative luminescence units) with Centromere B [6] amounted to 208; with Jo-1 [11] it was 7; in the assay “AtheNA, Ab 25 ug/ml”, 175; in “AtheNA, Ab 50 ug/ml”, 207; in “AtheNA, Ab 12.5 ug/ml” it was 63; in “AtheNA, Ab 6.25 ug/ml” it was 15.

B4: CH491 (antibody, V domains shown)
VH: QVQLVQSGAAVKRPGASVTISCRASGYTFTTYYIHWVRQAPGQGLELMGWINPRGGRTDYSYRFEDRVSMYRDTSMSIVYMDLRNLKSADTAVYYCVRNVGTSGSLLHYDFWGQGSLVTVSS
VL: B3 VL
For B4, the AtheNA signal stood at 118 with Jo-1 [7]; 169 with Jo-1 [9]; 79 in the assay with Jo-1 [10]; 56 in the assay with Jo-1 [11]; 95 in “AtheNA, Ab 25 ug/ml”; 144 in the assay “AtheNA, Ab 50 ug/ml”. Further, the AtheNA signal in the assay “AtheNA, Ab 12.5 ug/ml” came to 60; in the assay “AtheNA, Ab 6.25 ug/ml”, 42.

B5: CH235.9 Fab (Fab, V domains shown)
VH: QVRLLQYGGGVKRPGASMTISCVASGYNFNDYYIHWVRQAPGQGLELMGWIDPSGGRTDYAGAFGDRVSMYRDKSMNTLYMDLRSLRSGDTAMYYCVRNVGTAGSLLHYDHWGLGVMVTVSS
VL: B3 VL
For the molecule B5, the stoichiometry (Fabs per trimer) (Fabs per trimer) in [12] and in assay [13] was 3 throughout.

B6: CH493 (antibody, V domains shown)
VH: B5 VH
VL: B3 VL
On to B6, for which the AtheNA signal in the assay with Centromere B [4] came out at 129; in the assay with Jo-1 [7], 167; in the assay with Centromere B [8], 94; in the assay with Jo-1 [9], 198; with Centromere B [5] it was 165; with Jo-1 [10], 102. Besides, the figures for the AtheNA signal in the assay with Centromere B [6] and with Jo-1 [11] were 177 and 54, respectively.

B7: CH235 (antibody, V domains shown)
VH: QVQLVQSGAEVKKPGASVTVSCQASGYTFTNYYVHWVRQAPGQGLQLMGWIDPSWGRTNYAQNFQGRITMTRDTSTSTVYMEMRSLRSEDTAVYYCARNVATEGSLLHYDYWGQGTLVTVSA
VL: EIVLTQSPATLSVSPGERATLSCRASQSVRSNLAWYQQRPGQAPRLLIYGTSTRATGVPARFSGRGSGTEFTLAISSMQSEDFAVYLCLQYNNWWTFGQGTKVEIK
B7: the AtheNA signal (relative luminescence units) with Centromere B [4] was found to be 6; with Centromere B [5], 5; in the assay with Centromere B [6], 3.

B8: CH235 Fab (Fab, V domains shown)
VH: B7 VH
VL: B7 VL
On to B8, for which the stoichiometry (Fabs per trimer) (Fabs per trimer) in assay [12] came to 2; in assay [13], 1.

B9: CH235.12 Fab (Fab, V domains shown)
VH: QVRLAQYGGGVKRLGATMTLSCVASGYTFNDYYIHWVRQAPGQGFELLGYIDPANGRPDYAGALRERLSFYRDKSMETLYMDLRSLRYDDTAMYYCVRNVGTAGSLLHYDHWGSGSPVIVSS
VL: EIVLTQSPATLSASPGERVTLTCRASRSVRNNVAWYQHKGGQSPRLLIYDASTRAAGVPARFSGSASGTEFTLAISNLESEDFTVYFCLQYNNWWTFGQGTRVDIK
As to B9, the stoichiometry (Fabs per trimer) (Fabs per trimer) in assay [12] and in assay [13] was 3 each time.
